The values that follow come from patent EP4663199A1 (Strike Pharma AB, dated 2025).

Experiment [1] addresses peptide SEQ ID NO:234 (tag moiety …, AAY spacers, cargo peptide).
The target of experiment [2] is peptide SEQ ID NO:235 (tag moiety […], AAA spacers, cargo peptide).
For experiment [3], the target named is peptide SEQ ID NO:237 (tag moiety …, GGS spacer, cargo peptide).
Experiment [4] deals with peptide SEQ ID NO:243 (tag moiety …, GGS spacer, cargo peptide).
The target of experiment [5] is peptide SEQ ID NO:240 (tag moiety …, no spacer, cargo peptide).
The target of experiment [6] is peptide.
Experiment [7] addresses peptide SEQ ID NO:228 (tag moiety …, AAY spacers, cargo peptide).
For experiment [8], the target named is peptide SEQ ID NO:230 (tag moiety …, GGS spacers, cargo peptide).
Experiment [9] addresses peptide SEQ ID NO:236 (tag moiety …, GGS spacers, cargo peptide).

B1: bispecific binding molecule comprising a first specific binding molecule (comprising SEQ ID NO:265 a (bispecific antibody)
VH: EVQLLESGGGLVQPGGSLRLSCAASGFTFSSYAMSWVRQAPGKGLEWVSGISGYSGSTYYADSVKGRFTISRDNSKNTLYLQMNSLRAEDTAVYYCARYYSYYGYYYFDYWGQGTLVTVSS
VL: DIQMTQSPSSLSASVGDRVTITCRASQSISSYLNWYQQKPGKAPKLLIYAASSLQSGVPSRFSGSGSGTDFTLTISSLQPEDFATYYCQQGYPYPFTFGQGTKLEIK
scFv: QVQLVQSGAEVKKPGASVKVSCKASGFNIKDFNIHWVRQAPGQGLEWIGRIDPESGDAEYVPKFQGRVTMTRDTSTSTVYMELSSLRSEDTAVYYCTTGSYDLDVEYWGQGTLVTVSSGGGGSGGGGSGGGGSGGGGSDIQMTQSPSSLSASVGDRVTITCHASQNINVWLSWYQQKPGKAPKLLIYKASTLHTGVPSRFSGSGSGTDFTLTISSLQPEDFATYYCQQGQSYPLTFGQGTKLEIK
One may read the Kd as a measure of binding affinity in units of concentration. High values mean a looser complex, low ones a tighter complex. Consider B1, for which the Kd in experiment [1] came out at 0.017 nM; in experiment [2] it was 0.011 nM; in experiment [3] it was 0.076 nM; in [4], 0.0027 nM; in [5], 0.0055 nM; in [6], 0.012 nM. For the same molecule, the Kd was 0.0078 nM in experiment [7], 0.016 nM in experiment [8] and 0.012 nM in experiment [9].
